For one test, the target named is His6-SUMO3-sororin (human, UniProt Q96FF9 1-252). Nature of the test: pull-down.
The next test addresses T1, recombinant human Wapl (human, UniProt Q7Z5K2 1-1190).
T1 sequence: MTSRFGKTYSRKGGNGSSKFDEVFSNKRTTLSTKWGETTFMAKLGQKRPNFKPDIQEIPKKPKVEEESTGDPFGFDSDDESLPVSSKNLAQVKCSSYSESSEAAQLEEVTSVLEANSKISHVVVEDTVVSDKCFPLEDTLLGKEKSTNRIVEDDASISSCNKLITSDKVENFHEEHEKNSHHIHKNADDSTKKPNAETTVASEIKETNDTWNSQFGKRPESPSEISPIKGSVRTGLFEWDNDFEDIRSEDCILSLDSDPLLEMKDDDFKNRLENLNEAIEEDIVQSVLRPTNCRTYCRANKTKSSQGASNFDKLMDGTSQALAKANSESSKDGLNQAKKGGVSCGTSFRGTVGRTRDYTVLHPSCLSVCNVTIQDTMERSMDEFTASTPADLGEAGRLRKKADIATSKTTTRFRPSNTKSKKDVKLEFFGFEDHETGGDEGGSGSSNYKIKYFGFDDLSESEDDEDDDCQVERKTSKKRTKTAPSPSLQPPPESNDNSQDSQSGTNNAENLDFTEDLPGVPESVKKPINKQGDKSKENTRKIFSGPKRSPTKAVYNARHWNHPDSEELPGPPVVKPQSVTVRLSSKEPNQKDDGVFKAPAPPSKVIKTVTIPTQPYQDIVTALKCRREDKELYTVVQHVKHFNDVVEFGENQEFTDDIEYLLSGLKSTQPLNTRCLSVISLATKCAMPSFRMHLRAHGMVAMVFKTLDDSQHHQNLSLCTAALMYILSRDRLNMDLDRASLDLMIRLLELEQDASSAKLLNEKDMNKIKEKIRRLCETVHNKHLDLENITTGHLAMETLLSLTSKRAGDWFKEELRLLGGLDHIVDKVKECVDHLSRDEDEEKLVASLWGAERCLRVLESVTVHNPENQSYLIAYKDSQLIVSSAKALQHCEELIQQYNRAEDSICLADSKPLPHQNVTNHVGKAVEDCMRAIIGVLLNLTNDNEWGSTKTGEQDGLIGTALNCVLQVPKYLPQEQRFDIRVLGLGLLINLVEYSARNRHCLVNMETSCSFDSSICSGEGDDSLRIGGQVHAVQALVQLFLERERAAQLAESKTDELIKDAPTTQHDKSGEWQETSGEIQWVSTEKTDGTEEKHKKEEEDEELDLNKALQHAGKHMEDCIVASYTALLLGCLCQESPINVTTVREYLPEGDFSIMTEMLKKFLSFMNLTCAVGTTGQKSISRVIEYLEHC
Nature of the test: pull-down.

Sequence of His6-SUMO3-sororin (Q96FF9 whole entry): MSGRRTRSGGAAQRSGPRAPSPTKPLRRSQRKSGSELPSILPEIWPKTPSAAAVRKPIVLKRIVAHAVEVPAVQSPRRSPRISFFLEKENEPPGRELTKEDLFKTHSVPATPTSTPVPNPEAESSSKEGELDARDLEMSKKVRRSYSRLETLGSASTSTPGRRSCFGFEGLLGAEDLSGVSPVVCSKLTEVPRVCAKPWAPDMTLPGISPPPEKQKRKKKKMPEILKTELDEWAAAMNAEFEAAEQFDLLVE

B1: Flag-tagged Pds5b-Ser1177,1182,1209Ala (3A), untreated or exposed to Nek2a (natural protein)
chain: MAHSKTRTNDGKITYPPGVKEISDKISKEEMVRRLKMVVKTFMDMDQDSEEEKELYLNLALHLASDFFLKHPDKDVRLLVACCLADIFRIYAPEAPYTSPDKLKDIFMFITRQLKGLEDTKSPQFNRYFYLLENIAWVKSYNICFELEDSNEIFTQLYRTLFSVINNGHNQKVHMHMVDLMSSIICEGDTVSQELLDTVLVNLVPAHKNLNKQAYDLAKALLKRTAQAIEPYITNFFNQVLMLGKTSISDLSEHVFDLILELYNIDSHLLLSVLPQLEFKLKSNDNEERLQVVKLLAKMFGAKDSELASQNKPLWQCYLGRFNDIHVPIRLECVKFASHCLMNHPDLAKDLTEYLKVRSHDPEEAIRHDVIVSIVTAAKKDILLVNDHLLNFVRERTLDKRWRVRKEAMMGLAQIYKKYALQSAAGKDAAKQIAWIKDKLLHIYYQNSIDDRLLVERIFAQYMVPHNLETTERMKCLYYLYATLDLNAVKALNEMWKCQNLLRHQVKDLLDLIKQPKTDASVKAIFSKVMVITRNLPDPGKAQDFMKKFTQVLEDDEKIRKQLEVLVSPTCSCKQAEGCVREITKKLGNPKQPTNPFLEMIKFLLERIAPVHIDTESISALIKQVNKSIDGTADDEDEGVPTDQAIRAGLELLKVLSFTHPISFHSAETFESLLACLKMDDEKVAEAALQIFKNTGSKIEEDFPHIRSALLPVLHHKSKKGPPRQAKYAIHCIHAIFSSKETQFAQIFEPLHKSLDPSNLEHLITPLVTIGHIALLAPDQFAAPLKSLVATFIVKDLLMNDRLPGKKTTKLWVPDEEVSPETMVKIQAIKMMVRWLLGMKNNHSKSGTSTLRLLTTILHSDGDLTEQGKISKPDMSRLRLAAGSAIVKLAQEPCYHEIITLEQYQLCALAINDECYQVRQVFAQKLHKGLSRLRLPLEYMAICALCAKDPVKERRAHARQCLVKNINVRREYLKQHAAVSEKLLSLLPEYVVPYTIHLLAHDPDYVKVQDIEQLKDVKECLWFVLEILMAKNENNSHAFIRKMVENIKQTKDAQGPDDAKMNEKLYTVCDVAMNIIMSKSTTYSLESPKDPVLPARFFTQPDKNFSNTKNYLPPEMKSFFTPGKPKTTNVLGAVNKPLSSAGKQSQTKSSRMETVSNASSSSNPSSPGRIKGRLDSAEMDHAENEDYTMSSPLPGKKSDKRDDSDLVRAELEKPRGRKKTPVTEQEEKLGMDDLTKLVQEQKPKGSQRSRKRGHTASESDEQQWPEEKRLKEDILENEDEQNSPPKKGKRGRPPKPLGGGTPKEEPTMKTSKKGSKKKSGPPAPEEEEEEERQSGNTEQKSKSKQHRVSRRAQQRAESPESSAIESTQSTPQKGRGRPSKTPSPSQPKKNVRVGRSKQAATKENDSSEEVDVFQGSSPVDDIPQEETEEEEVSTVNVRRRSAKRERR
Turning to B1, the binding result with His6-SUMO3-sororin is on record as “binds”.

B2: Flag-tagged Pds5b-Ser1177,1182,1209Ala (3A), phosphorylated by Cdk1/2-cyclin A2 in vitro (natural protein)
chain: MAHSKTRTNDGKITYPPGVKEISDKISKEEMVRRLKMVVKTFMDMDQDSEEEKELYLNLALHLASDFFLKHPDKDVRLLVACCLADIFRIYAPEAPYTSPDKLKDIFMFITRQLKGLEDTKSPQFNRYFYLLENIAWVKSYNICFELEDSNEIFTQLYRTLFSVINNGHNQKVHMHMVDLMSSIICEGDTVSQELLDTVLVNLVPAHKNLNKQAYDLAKALLKRTAQAIEPYITNFFNQVLMLGKTSISDLSEHVFDLILELYNIDSHLLLSVLPQLEFKLKSNDNEERLQVVKLLAKMFGAKDSELASQNKPLWQCYLGRFNDIHVPIRLECVKFASHCLMNHPDLAKDLTEYLKVRSHDPEEAIRHDVIVSIVTAAKKDILLVNDHLLNFVRERTLDKRWRVRKEAMMGLAQIYKKYALQSAAGKDAAKQIAWIKDKLLHIYYQNSIDDRLLVERIFAQYMVPHNLETTERMKCLYYLYATLDLNAVKALNEMWKCQNLLRHQVKDLLDLIKQPKTDASVKAIFSKVMVITRNLPDPGKAQDFMKKFTQVLEDDEKIRKQLEVLVSPTCSCKQAEGCVREITKKLGNPKQPTNPFLEMIKFLLERIAPVHIDTESISALIKQVNKSIDGTADDEDEGVPTDQAIRAGLELLKVLSFTHPISFHSAETFESLLACLKMDDEKVAEAALQIFKNTGSKIEEDFPHIRSALLPVLHHKSKKGPPRQAKYAIHCIHAIFSSKETQFAQIFEPLHKSLDPSNLEHLITPLVTIGHIALLAPDQFAAPLKSLVATFIVKDLLMNDRLPGKKTTKLWVPDEEVSPETMVKIQAIKMMVRWLLGMKNNHSKSGTSTLRLLTTILHSDGDLTEQGKISKPDMSRLRLAAGSAIVKLAQEPCYHEIITLEQYQLCALAINDECYQVRQVFAQKLHKGLSRLRLPLEYMAICALCAKDPVKERRAHARQCLVKNINVRREYLKQHAAVSEKLLSLLPEYVVPYTIHLLAHDPDYVKVQDIEQLKDVKECLWFVLEILMAKNENNSHAFIRKMVENIKQTKDAQGPDDAKMNEKLYTVCDVAMNIIMSKSTTYSLESPKDPVLPARFFTQPDKNFSNTKNYLPPEMKSFFTPGKPKTTNVLGAVNKPLSSAGKQSQTKSSRMETVSNASSSSNPSSPGRIKGRLDSAEMDHAENEDYTMSSPLPGKKSDKRDDSDLVRAELEKPRGRKKTPVTEQEEKLGMDDLTKLVQEQKPKGSQRSRKRGHTASESDEQQWPEEKRLKEDILENEDEQNSPPKKGKRGRPPKPLGGGTPKEEPTMKTSKKGSKKKSGPPAPEEEEEEERQSGNTEQKSKSKQHRVSRRAQQRAESPESSAIESTQSTPQKGRGRPSKTPSPSQPKKNVRVGRSKQAATKENDSSEEVDVFQGSSPVDDIPQEETEEEEVSTVNVRRRSAKRERR
For B2, in the test with recombinant human Wapl, the binding result was “binds”.

B3: Flag-tagged Pds5b-Ser1161,1166,1177,1182,1209Ala (5A), untreated or exposed to Nek2a and Cdk1/2-cyclin A2 (natural protein)
chain: MAHSKTRTNDGKITYPPGVKEISDKISKEEMVRRLKMVVKTFMDMDQDSEEEKELYLNLALHLASDFFLKHPDKDVRLLVACCLADIFRIYAPEAPYTSPDKLKDIFMFITRQLKGLEDTKSPQFNRYFYLLENIAWVKSYNICFELEDSNEIFTQLYRTLFSVINNGHNQKVHMHMVDLMSSIICEGDTVSQELLDTVLVNLVPAHKNLNKQAYDLAKALLKRTAQAIEPYITNFFNQVLMLGKTSISDLSEHVFDLILELYNIDSHLLLSVLPQLEFKLKSNDNEERLQVVKLLAKMFGAKDSELASQNKPLWQCYLGRFNDIHVPIRLECVKFASHCLMNHPDLAKDLTEYLKVRSHDPEEAIRHDVIVSIVTAAKKDILLVNDHLLNFVRERTLDKRWRVRKEAMMGLAQIYKKYALQSAAGKDAAKQIAWIKDKLLHIYYQNSIDDRLLVERIFAQYMVPHNLETTERMKCLYYLYATLDLNAVKALNEMWKCQNLLRHQVKDLLDLIKQPKTDASVKAIFSKVMVITRNLPDPGKAQDFMKKFTQVLEDDEKIRKQLEVLVSPTCSCKQAEGCVREITKKLGNPKQPTNPFLEMIKFLLERIAPVHIDTESISALIKQVNKSIDGTADDEDEGVPTDQAIRAGLELLKVLSFTHPISFHSAETFESLLACLKMDDEKVAEAALQIFKNTGSKIEEDFPHIRSALLPVLHHKSKKGPPRQAKYAIHCIHAIFSSKETQFAQIFEPLHKSLDPSNLEHLITPLVTIGHIALLAPDQFAAPLKSLVATFIVKDLLMNDRLPGKKTTKLWVPDEEVSPETMVKIQAIKMMVRWLLGMKNNHSKSGTSTLRLLTTILHSDGDLTEQGKISKPDMSRLRLAAGSAIVKLAQEPCYHEIITLEQYQLCALAINDECYQVRQVFAQKLHKGLSRLRLPLEYMAICALCAKDPVKERRAHARQCLVKNINVRREYLKQHAAVSEKLLSLLPEYVVPYTIHLLAHDPDYVKVQDIEQLKDVKECLWFVLEILMAKNENNSHAFIRKMVENIKQTKDAQGPDDAKMNEKLYTVCDVAMNIIMSKSTTYSLESPKDPVLPARFFTQPDKNFSNTKNYLPPEMKSFFTPGKPKTTNVLGAVNKPLSSAGKQSQTKSSRMETVSNASSASNPSAPGRIKGRLDSAEMDHAENEDYTMSSPLPGKKSDKRDDSDLVRAELEKPRGRKKTPVTEQEEKLGMDDLTKLVQEQKPKGSQRSRKRGHTASESDEQQWPEEKRLKEDILENEDEQNSPPKKGKRGRPPKPLGGGTPKEEPTMKTSKKGSKKKSGPPAPEEEEEEERQSGNTEQKSKSKQHRVSRRAQQRAESPESSAIESTQSTPQKGRGRPSKTPSPSQPKKNVRVGRSKQAATKENDSSEEVDVFQGSSPVDDIPQEETEEEEVSTVNVRRRSAKRERR
Turning to B3, the binding result in the test with His6-SUMO3-sororin is listed as “binds”.

(Values after paper doi:10.1101/2024.03.12.584565 (bioRxiv, 2024).)
